In data set [1] the test system is MBP-P6.9 NA-FLAG (7A, hypo-phosphorylation mimic) (Autographa californica multiple nucleopolyhedrovirus (AcMNPV)). The data set can be described thus: fluorescence polarization. As to conditions: FP: 50 mM HEPES pH 7.5, 0.005% sarcosyl, 100 mM NaCl, 0.5 mM EDTA, 1 mM DTT, 20 nM DNA, 1 h at 4 C, EMSA: 50 mM Tris pH 7.4, 100 mM NaCl, 1 mM EDTA.
The subject of data set [2] is MBP-P6.9 NE-FLAG (7E, hyper-phosphorylation mimic) (Autographa californica multiple nucleopolyhedrovirus (AcMNPV)). The data set can be described thus: fluorescence polarization. Conditions: FP: 50 mM HEPES pH 7.5, 0.005% sarcosyl, 100 mM NaCl, 0.5 mM EDTA, 1 mM DTT, 20 nM DNA, 1 h at 4 C, EMSA: 50 mM Tris pH 7.4, 100 mM NaCl, 1 mM EDTA. For orientation: Fluorescence polarisation rises when a labelled molecule tumbles more slowly, as on binding a larger partner.

As a reminder, the Kd is the equilibrium constant for the complex coming apart.

Consider 39-bp DNA, for which the results for the Kd in data set [1] and in data set [2] were 0.45 µM and 1.75 µM, respectively.

Values taken from publication PMC12159748.
